Data taken from IntAct's records for PubMed 24076405.

B1: SCL-interrupting locus protein (Homo sapiens), Q15468 (parent)
chain: MEPIYPFARPQMNTRFPSSRMVPFHFPPSKCALWNPTPTGDFIYLHLSYYRNPKLVVTEKTIRLAYRHAKQNKKNSSCFLLGSLTADEDEEGVTLTVDRFDPGREVPECLEITPTASLPGDFLIPCKVHTQELCSREMIVHSVDDFSSALKALQCHICSKDSLDCGKLLSLRVHITSRESLDSVEFDLHWAAVTLANNFKCTPVKPIPIIPTALARNLSSNLNISQVQGTYKYGYLTMDETRKLLLLLESDPKVYSLPLVGIWLSGITHIYSPQVWACCLRYIFNSSVQERVFSESGNFIIVLYSMTHKEPEFYECFPCDGKIPDFRFQLLTSKETLHLFKNVEPPDKNPIRCELSAESQNAETEFFSKASKNFSIKRSSQKLSSGKMPIHDHDSGVEDEDFSPRPIPSPHPVSQKISKIQPSVPELSLVLDGNFIESNPLPTPLEMVNNENPPLINHLEHLKPLQPQLYDEKHSPEVEAGEPSLRGIPNQLNQDKPALLRHCKVRQPPAYKKGNPHTRNSIKPSSHNGPSHDIFEKLQTVSAGNVQNEEYPIRPSTLNSRQSSLAPQSQPHDFVFSPHNSGRPMELQIPTPPLPSYCSTNVCRCCQHHSHIQYSPLNSWQGANTVGSIQDVQSEALQKHSLFHPSGCPALYCNAFCSSSSPIALRPQGDMGSCSPHSNIEPSPVARPPSHMDLCNPQPCTVCMHTPKTESDNGMMGLSPDAYRFLTEQDRQLRLLQAQIQRLLEAQSLMPCSPKTTAVEDTVQAGRQMELVSVEAQSSPGLHMRKGVSIAVSTGASLFWNAAGEDQEPDSQMKQDDTKISSEDMNFSVDINNEVTSLPGSASSLKAVDIPSFEESNIAVEEEFNQPLSVSNSSLVVRKEPDVPVFFPSGQLAESVSMCLQTGPTGGASNNSETSEEPKIEHVMQPLLHQPSDNQKIYQDLLGQVNHLLNSSSKETEQPSTKAVIISHECTRTQNVYHTKKKTHHSRLVDKDCVLNATLKQLRSLGVKIDSPTKVKKNAHNVDHASVLACISPEAVISGLNCMSFANVGMSGLSPNGVDLSMEANAIALKYLNENQLSQLSVTRSNQNNCDPFSLLHINTDRSTVGLSLISPNNMSFATKKYMKRYGLLQSSDNSEDEEEPPDNADSKSEYLLNQNLRSIPEQLGGQKEPSKNDHEIINCSNCESVGTNADTPVLRNITNEVLQTKAKQQLTEKPAFLVKNLKPSPAVNLRTGKAEFTQHPEKENEGDITIFPESLQPSETLKQMNSMNSVGTFLDVKRLRQLPKLF
B2: Centrosomal P4.1-associated protein (Homo sapiens), Q9HC77 (parent)
chain: MFLMPTSSELNSGQNFLTQWMTNPSRAGVILNRGFPILEADKEKRAAVDISTSFPIKGTHFSDSFSFINEEDSLLEEQKLESNNPYKPQSDKSETHTAFPCIKKGPQVAACHSAPGHQEENKNDFIPDLASEFKEGAYKDPLFKKLEQLKEVQQKKQEQLKRQQLEQLQRLMEEQEKLLTMVSGQCTLPGLSLLPDDQSQKHRSPGNTTTGERATCCFPSYVYPDPTQEETYPSNILSHEQSNFCRTAHGDFVLTSKRASPNLFSEAQYQEAPVEKNNLKEENRNHPTGESILCWEKVTEQIQEANDKNLQKHDDSSEVANIEERPIKAAIGERKQTFEDYLEEQIQLEEQELKQKQLKEAEGPLPIKAKPKQPFLKRGEGLARFTNAKSKFQKGKESKLVTNQSTSEDQPLFKMDRQQLQRKTALKNKELCADNPILKKDSKARTKSGSVTLSQKPKMLKCSNRKSLSPSGLKIQTGKKCDGQFRDQIKFENKVTSNNKENVTECPKPCDTGCTGWNKTQGKDRLPLSTGPASRLAAKSPIRETMKESESSLDVSLQKKLETWEREKEKENLELDEFLFLEQAADEISFSSNSSFVLKILERDQQICKGHRMSSTPVKAVPQKTNPADPISHCNRSEDLDHTAREKESECEVAPKQLHSLSSADELREQPCKIRKAVQKSTSENQTEWNARDDEGVPNSDSSTDSEEQLDVTIKPSTEDRERGISSREDSPQVCDDKGPFKDTRTQEDKRRDVDLDLSDKDYSSDESIMESIKHKVSEPSRSSSLSLSKMDFDDERTWTDLEENLCNHDVVLGNESTYGTPQTCYPNNEIGILDKTIKRKIAPVKRGEDLSKSRRSRSPPTSELMMKFFPSLKPKPKSDSHLGNELKLNISQDQPPGDNARSQVLREKIIELETEIEKFKAENASLAKLRIERESALEKLRKEIADFEQQKAKELARIEEFKKEEMRKLQKERKVFEKYTTAARTFPDKKEREEIQTLKQQIADLREDLKRKETKWSSTHSRLRSQIQMLVRENTDLREEIKVMERFRLDAWKRAEAIESSLEVEKKDKLANTSVRFQNSQISSGTQVEKYKKNYLPMQGNPPRRSKSAPPRDLGNLDKGQAASPREPLEPLNFPDPEYKEEEEDQDIQGEISHPDGKVEKVYKNGCRVILFPNGTRKEVSADGKTITVTFFNGDVKQVMPDQRVIYYYAAAQTTHTTYPEGLEVLHFSSGQIEKHYPDGRKEITFPDQTVKNLFPDGQEESIFPDGTIVRVQRDGNKLIEFNNGQRELHTAQFKRREYPDGTVKTVYANGHQETKYRSGRIRVKDKEGNVLMDTEL
partner: B1 chain

Variants of: B1
Settings: with cpap_human CPAP

Variant	effect of a mutation on the interaction
K419E	decreasing interaction strength
R405I	decreasing interaction strength

Variants of: B2
Settings: with stil_human STIL

Variant	effect of a mutation on the interaction
Y1210A	decreasing interaction strength
Y1208A	decreasing interaction strength
F1229A	decreasing interaction strength
E1235K	decreasing interaction strength
E1235V	decreasing interaction strength
